This is an account of results in patent publication US20210221878A1 (Bristol-Myers Squibb, published 2021).

The target of experiment [1] is T1, α-synuclein inducing species in brain lysates of MSA patients (12-18, 01-03, 04-51) (human, UniProt P37840 1-140). As to the kind of experiment: cell-based or functional assay.
A further experiment concerns the target rat αSyn 111-140 peptide (rat, C-terminal amide (NH2)). As to the kind of experiment: solution competition ELISA, free antibody captured on PFF plate; column Rat 111-140 (nM). For orientation: ELISA stands for enzyme-linked immunosorbent assay.
For experiment [2], the target named is T2, full-length human recombinant wild-type γ-synuclein monomer (human, UniProt O76070 1-127).
T2 construct: mature; also called human γSyn monomer
As to the kind of experiment: competition ELISA: antibody pre-incubated with titrated synuclein species in solution; unbound antibody captured on WT PFF-coated plate (CPS).

For experiment [3], the target named is T3, full-length human recombinant wild-type β-synuclein monomer (human, UniProt Q16143 1-134).
T3 construct: mature; also called human βSyn monomer
The experiment is described as above.

The target of experiment [4] is T1, α-synuclein inducing species in brain …. As to the kind of experiment: cell-based or functional assay. This is another data set of the same source.
For experiment [5] the target is unchanged. As to the kind of experiment: cell-based or functional assay. The source holds these as a separate data set.
Experiment [6] addresses mouse αSyn 111-140 peptide (mouse, C-terminal amide (NH2)). As to the kind of experiment: solution competition ELISA, free antibody captured on PFF plate; column Mouse 111-140 (nM).
The target in experiment [7] is PFF used as inducer in the immunodepletion assay of Example 10 (human, UniProt P37840 1-140). As to the kind of experiment: cell-based or functional assay.

T3 sequence (Q16143 whole entry): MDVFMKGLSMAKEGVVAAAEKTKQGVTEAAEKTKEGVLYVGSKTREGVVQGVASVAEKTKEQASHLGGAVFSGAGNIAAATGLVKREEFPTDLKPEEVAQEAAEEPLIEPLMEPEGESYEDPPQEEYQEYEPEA

B1: 11H11-1 (antibody, V domains shown)
VH: EVQLVQSGGGLVHPGGSLRLSCAGSGFTFSSYAMHWVRQAPGKGLEWVSAIGTGGGTYYADSVKGRFTISRDNAKNSLYLQMNSLRAEDMAVYYCARGNWEFDYWGQGTLVTVSS
VL: not shown
notes: shares its VH with 11H11-2
A word on the EC50: it is the concentration that produces a half-maximal response. Read a low EC50 as higher potency in that assay. For the molecule B1, in experiment [1], the “IC50 (nM), immunodepletion of pS129-inducing activity from MSA 12-18 lysate” value worked out at 0.76 nM. For the same molecule, the half-maximal effective concentration (EC50) with rat αSyn 111-140 peptide amounted to 5.71 µM; in experiment [6], 5.75 µM. The binding result in experiment [2] and in experiment [3] was “binds” each time. Besides, in experiment [4], the “IC50 (nM), immunodepletion of pS129-inducing activity from MSA 01-03 lysate” value is 2.6 nM. In addition, in experiment [5], the “IC50 (nM), immunodepletion of pS129-inducing activity from MSA 04-51 lysate” value worked out at 0.15 nM. For the same molecule, in experiment [7], the “IC50 (nM), immunodepletion of pS129-inducing activity from PFF” value turned out to be 0.066 nM.
